The values below come from article PMC4442312 (eLife, 2015).

Test [1] concerns the target T1, His-ORCA (baculovirus) (human, UniProt Q9UFC0 1-647).
T1 construct: ORCA/LRWD1 in pFastBac HT-B; also called purified His-tagged-ORCA; baculovirally purified His-ORCA; source: Hi5 insect cells (baculovirus), nuclear extract, 45% ammonium sulfate precipitation; called 'baculovirally purified'
T1 sequence (looked up): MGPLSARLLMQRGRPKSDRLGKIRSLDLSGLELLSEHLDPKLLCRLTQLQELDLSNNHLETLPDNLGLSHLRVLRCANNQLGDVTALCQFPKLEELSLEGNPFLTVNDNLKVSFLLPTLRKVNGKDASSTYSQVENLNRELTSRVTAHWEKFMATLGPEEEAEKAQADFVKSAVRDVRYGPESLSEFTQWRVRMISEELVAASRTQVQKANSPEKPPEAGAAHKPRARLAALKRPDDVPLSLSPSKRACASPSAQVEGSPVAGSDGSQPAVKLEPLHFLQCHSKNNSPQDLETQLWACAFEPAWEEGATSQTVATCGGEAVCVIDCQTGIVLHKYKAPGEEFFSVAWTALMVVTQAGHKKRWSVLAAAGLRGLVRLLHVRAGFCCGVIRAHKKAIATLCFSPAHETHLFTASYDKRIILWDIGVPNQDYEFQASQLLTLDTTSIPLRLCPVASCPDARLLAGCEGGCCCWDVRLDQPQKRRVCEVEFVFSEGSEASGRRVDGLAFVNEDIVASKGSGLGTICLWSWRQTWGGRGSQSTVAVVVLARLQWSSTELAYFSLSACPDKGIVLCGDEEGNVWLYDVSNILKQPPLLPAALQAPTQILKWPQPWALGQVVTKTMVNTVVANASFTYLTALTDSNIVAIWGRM
Put plainly: pull-down; H3 (1-15) peptides coupled to SulphoLink (iodoalkyl agarose) resin, incubated with baculovirally purified His-ORCA 2 hr at RT in PK 150 buffer (150 mM KCl, 0.02% NP-40); immunoblot. Particulars: both partners purified. In general terms: In western blotting, separated proteins are transferred to a membrane and probed.

The target of test [2] is T2, T7-ORCA (full-length) (human, UniProt Q9UFC0 1-647).
T2 construct: ORCA/LRWD1, full length; also called T7-tagged ORCA; full-length T7-ORCA; source: U2OS, transiently transfected, in lysate
T2 sequence (looked up): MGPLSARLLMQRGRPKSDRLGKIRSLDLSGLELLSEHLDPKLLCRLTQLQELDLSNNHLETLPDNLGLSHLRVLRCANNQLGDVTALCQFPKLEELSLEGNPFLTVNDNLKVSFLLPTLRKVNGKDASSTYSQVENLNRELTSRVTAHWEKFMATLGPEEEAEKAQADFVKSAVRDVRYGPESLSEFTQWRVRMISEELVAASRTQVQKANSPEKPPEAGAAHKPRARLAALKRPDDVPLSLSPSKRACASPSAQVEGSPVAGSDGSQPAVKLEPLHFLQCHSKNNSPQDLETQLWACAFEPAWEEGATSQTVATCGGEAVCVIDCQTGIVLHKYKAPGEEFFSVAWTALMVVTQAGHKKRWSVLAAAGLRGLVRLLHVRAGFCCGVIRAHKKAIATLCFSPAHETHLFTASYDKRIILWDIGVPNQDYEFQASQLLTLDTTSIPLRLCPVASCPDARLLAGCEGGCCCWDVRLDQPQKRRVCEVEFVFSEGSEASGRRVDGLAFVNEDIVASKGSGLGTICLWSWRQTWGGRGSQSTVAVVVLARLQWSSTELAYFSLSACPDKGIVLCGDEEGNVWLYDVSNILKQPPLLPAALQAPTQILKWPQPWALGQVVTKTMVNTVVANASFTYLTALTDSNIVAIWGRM
As to the kind of experiment: single-molecule pull-down (SiMPull); biotinylated T7 antibody on NeutrAvidin/PEG quartz slides; U2OS lysates co-expressing T7-ORCA and one YFP protein; TIRF, YFP photobleaching steps; biotinylated HA antibody as control. The following applies: partners not purified.

Ends that are not written are not given here. Me3 = tri-methylated lysine; Me2 = di-methylated lysine

Usually stoichiometry N stands for the number of molecules, sites or subunits per partner or assembly.

B1: Histone H3 (1–15) peptide, K9 mono-methylated, N-terminal cysteine (peptide)
peptide: CARTKQTARK(Me)STGGKA
notes: a cysteine at the N terminus, for coupling to the resin; human histone H3, amino acids 1-15; also called H3K9me1 peptide; source: synthetic peptide (Biomer technology), coupled to SulphoLink resin
Take B1: the binding result in test [1] is “binds”.

B2: YFP-Suv39H1 (enzyme, UniProt O43463 1-412, looked up)
chain: MAENLKGCSVCCKSSWNQLQDLCRLAKLSCPALGISKRNLYDFEVEYLCDYKKIREQEYYLVKWRGYPDSESTWEPRQNLKCVRILKQFHKDLERELLRRHHRSKTPRHLDPSLANYLVQKAKQRRALRRWEQELNAKRSHLGRITVENEVDLDGPPRAFVYINEYRVGEGITLNQVAVGCECQDCLWAPTGGCCPGASLHKFAYNDQGQVRLRAGLPIYECNSRCRCGYDCPNRVVQKGIRYDLCIFRTDDGRGWGVRTLEKIRKNSFVMEYVGEIITSEEAERRGQIYDRQGATYLFDLDYVEDVYTVDAAYYGNISHFVNHSCDPNLQVYNVFIDNLDERLPRIAFFATRTIRAGEELTFDYNMQVDPVDMESTRMDSNFGLAGLPGSPKKRVRIECKCGTESCRKYLF
notes: Suv39H1; human clones in pEYFP and pSV2-YFP-mSuv39H1 are both named in the methods; source: U2OS, transiently transfected, in lysate
Consider B2, for which the “stoichiometry N” value in test [2] was 1 Suv39H1 per ORCA.

B3: YFP-ORC1 (natural protein, UniProt Q13415 1-861, looked up)
chain: MAHYPTRLKTRKTYSWVGRPLLDRKLHYQTYREMCVKTEGCSTEIHIQIGQFVLIEGDDDENPYVAKLLELFEDDSDPPPKKRARVQWFVRFCEVPACKRHLLGRKPGAQEIFWYDYPACDSNINAETIIGLVRVIPLAPKDVVPTNLKNEKTLFVKLSWNEKKFRPLSSELFAELNKPQESAAKCQKPVRAKSKSAESPSWTPAEHVAKRIESRHSASKSRQTPTHPLTPRARKRLELGNLGNPQMSQQTSCASLDSPGRIKRKVAFSEITSPSKRSQPDKLQTLSPALKAPEKTRETGLSYTEDDKKASPEHRIILRTRIAASKTIDIREERTLTPISGGQRSSVVPSVILKPENIKKRDAKEAKAQNEATSTPHRIRRKSSVLTMNRIRQQLRFLGNSKSDQEEKEILPAAEISDSSSDEEEASTPPLPRRAPRTVSRNLRSSLKSSLHTLTKVPKKSLKPRTPRCAAPQIRSRSLAAQEPASVLEEARLRLHVSAVPESLPCREQEFQDIYNFVESKLLDHTGGCMYISGVPGTGKTATVHEVIRCLQQAAQANDVPPFQYIEVNGMKLTEPHQVYVQILQKLTGQKATANHAAELLAKQFCTRGSPQETTVLLVDELDLLWTHKQDIMYNLFDWPTHKEARLVVLAIANTMDLPERIMMNRVSSRLGLTRMCFQPYTYSQLQQILRSRLKHLKAFEDDAIQLVARKVAALSGDARRCLDICRRATEICEFSQQKPDSPGLVTIAHSMEAVDEMFSSSYITAIKNSSVLEQSFLRAILAEFRRSGLEEATFQQIYSQHVALCRMEGLPYPTMSETMAVCSHLGSCRLLLVEPSRNDLLLRVRLNVSQDDVLYALKDE
notes: origin recognition complex subunit 1; source: U2OS, transiently transfected, in lysate
On to B3, for which, in test [2], the “stoichiometry N” value amounted to 1 Orc1 per ORCA.

B4: Histone H3 (1–15) peptide, K9 di-methylated, N-terminal cysteine (peptide)
peptide: CARTKQTARK(Me2)STGGKA
notes: a cysteine at the N terminus, for coupling to the resin; human histone H3, amino acids 1-15; also called H3K9me2 peptide; source: synthetic peptide (Biomer technology), coupled to SulphoLink resin
Take B4: in test [1], the binding result is “binds”.

B5: Histone H3 (1–15) peptide, K9 tri-methylated, N-terminal cysteine (peptide)
peptide: CARTKQTARK(Me3)STGGKA
notes: a cysteine at the N terminus, for coupling to the resin; human histone H3, amino acids 1-15; also called H3K9me3 peptide; source: synthetic peptide (Biomer technology), coupled to SulphoLink resin
On to B5, for which, in test [1], the binding result is recorded as “binds”.
